# Measurements from publication PMC10659578, “Mechanism of stepwise electron transfer in six-transmembrane epithelial antigen of the prostate (STEAP) 1 and 2” (eLife, 2023).
# B1: Human six-transmembrane epithelial antigen of the prostate 2 (STEAP2) (natural protein)
# chain: MESISMMGSPKSLSETFLPNGINGIKDARKVTVGVIGSGDFAKSLTIRLIRCGYHVVIGSRNPKFASEFFPHVVDVTHHEDALTKTNIIFVAIHREHYTSLWDLRHLLVGKILIDVSNNMRINQYPESNAEYLASLFPDSLIVKGFNVVSAWALQLGPKDASRQVYICSNNIQARQQVIELARQLNFIPIDLGSLSSAREIENLPLRLFTLWRGPVVVAISLATFFFLYSFVRDVIHPYARNQQSDFYKIPIEIVNKTLPIVAITLLSLVYLAGLLAAAYQLYYGTKYRRFPPWLETWLQCRKQLGLLSFFFAMVHVAYSLCLPMRRSERYLFLNMAYQQVHANIENSWNEEEVWRIEMYISFGIMSLGLLSLLAVTSIPSVSNALNWREFSFIQSTLGYVALLISTFHVLIYGWKRAFEEEYYRFYTPPNFVLALVLPSIVILGKIILFLPCISRKLKRIKKGWEKSQFLEEGMGGTIPHVSPERVTVM
# notes: N-terminal residues 1-27, residues 332-353 and C-terminal residues 470-490 are unresolved in the map, which implies a 490-residue chain; Homotrimer with heme; The cryo-EM sample was in GDN with FAD and NADP+; Residues of the TEV site may remain at the C-terminus after cleavage; also called hSTEAP2; not shown: His6, C-terminal, cleaved
# Target: the molecule itself
# Assay: SEC; purified hSTEAP2 on an SRT-3C SEC-300 column in 20 mM HEPES, 150 mM NaCl, 0.01% LMNG; single peak
protein,measurement,value
B1,stoichiometry N,3
